13 molecules from patent publication US20260274985A1 (MYTHIC THERAPEUTICS, published 2026) can be followed below.

Assay [1] concerns the target T1, Human TROP2 Protein, His Tag (Acro Biosystems) (human, UniProt P09758 27-274).
T1 construct: not shown: His tag
T1 sequence (looked up): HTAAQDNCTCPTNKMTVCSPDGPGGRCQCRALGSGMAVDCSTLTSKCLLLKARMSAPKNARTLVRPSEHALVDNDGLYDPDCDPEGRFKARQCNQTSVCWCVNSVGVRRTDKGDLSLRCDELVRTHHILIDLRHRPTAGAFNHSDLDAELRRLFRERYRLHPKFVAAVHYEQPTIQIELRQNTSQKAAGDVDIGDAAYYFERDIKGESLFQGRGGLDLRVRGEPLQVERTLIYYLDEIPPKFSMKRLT
Briefly: BLI (Octet). In general terms: BLI is a label-free optical method that tracks binding on a fibre tip over time.

Assay [2] addresses T2, TROP2 on TROP2-positive NCI-H1975 cells (human, UniProt P09758 27-323).
T2 construct: whole, on cells
T2 sequence (looked up): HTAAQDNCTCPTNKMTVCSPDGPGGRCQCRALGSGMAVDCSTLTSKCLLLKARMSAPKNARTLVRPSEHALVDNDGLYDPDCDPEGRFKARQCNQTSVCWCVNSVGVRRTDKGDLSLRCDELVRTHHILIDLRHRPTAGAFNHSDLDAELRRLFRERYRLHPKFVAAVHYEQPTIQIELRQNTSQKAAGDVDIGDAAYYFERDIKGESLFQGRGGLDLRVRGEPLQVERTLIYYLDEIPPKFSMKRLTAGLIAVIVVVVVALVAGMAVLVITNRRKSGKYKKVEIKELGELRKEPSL
Put plainly: binding to TROP2-positive NCI-H1975 cells at pH 7.4.

Assay [3] addresses T2, TROP2 on TROP2-positive NCI-H1975 cells. Briefly: binding to TROP2-positive NCI-H1975 cells at pH 5.4.
In assay [4] the target is T3, Human TROP2 Protein, His Tag (Acro Biosystems) (human, UniProt P09758 27-274).
T3 construct: not shown: His tag
T3 sequence (looked up): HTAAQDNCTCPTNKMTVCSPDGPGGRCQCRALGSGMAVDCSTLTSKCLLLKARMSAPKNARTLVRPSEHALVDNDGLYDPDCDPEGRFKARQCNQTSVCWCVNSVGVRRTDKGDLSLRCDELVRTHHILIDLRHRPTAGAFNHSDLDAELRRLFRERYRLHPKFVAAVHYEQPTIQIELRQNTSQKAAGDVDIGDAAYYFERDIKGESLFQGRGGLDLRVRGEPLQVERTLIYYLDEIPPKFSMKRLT
Briefly: Octet (BLI); antigen and pH not given.

In assay [5] the target is T2, TROP2 on TROP2-positive NCI-H1975 cells. Briefly: binding to TROP2-positive NCI-H1975 cells at pH 6.7.
Assay [6] has as its target T4, Human TROP2 Protein, His Tag (Acro Biosystems) (human, UniProt P09758 27-274).
T4 construct: also called TACSTD2; not shown: His tag
T4 sequence (looked up): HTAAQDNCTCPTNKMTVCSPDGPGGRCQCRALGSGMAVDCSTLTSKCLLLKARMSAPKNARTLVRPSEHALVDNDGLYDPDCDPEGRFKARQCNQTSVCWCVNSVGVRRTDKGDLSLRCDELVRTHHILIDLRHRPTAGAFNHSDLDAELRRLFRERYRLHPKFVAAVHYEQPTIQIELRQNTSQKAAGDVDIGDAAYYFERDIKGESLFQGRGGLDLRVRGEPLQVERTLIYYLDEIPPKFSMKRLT
Briefly: BLI (Octet) [2/2].

A word on the IC50: it is the midpoint of a concentration-inhibition curve. Low readings indicate inhibition by little substance, high ones a need for much substance. The Kd is the equilibrium constant for the complex coming apart.

B1: MYT12390 (antibody, V domains shown)
VH: QVQLVQSGAEVKKPGASVKVSCKASGYTFTTAGMQWVRQAPGQGLEWMGWINTHSGVPKYAEDFKGRVTISADTSTSTAYLQLSSLKSEDTAVYYCARSGFGSSYWYFDVWGQGTLVTVSS
VL: DIQMTQSPSSLSASVGDRVTITCKASQHVSTAVAWYQQKPGKAPKLLIYSASYRYTGVPSRFSGSGSGTDFTLTISSLQPEDFAVYYCHQHYITPLTFGQGTKLEIK
notes: datopotamab VL 28, 89 substituted
For the molecule B1, in assay [1], the binding result was “no binding (tested: 50 nM)”.

B2: MYT11635 (antibody, human IgG1, V domains shown)
VH: QVQLVQSGAEVKKPGASVKVSCKASGYTFTTAGMQWVRQAPGQGLEWMGWINTHSGVPKYAEDFKGRVTISADTSTSTAYLQLSSLKSEDTAVYYCARSGFGSSYWYFDVWGQGTLVTVSS
VL: DIQMTQSPSSLSASVGDRVTITCKASQDVSTAVAWYQQKPGKAPKLLIYSASYRYTGVPSRFSGSGSGTDFTLTISSLQPEDFAVYYCQQHYITPLTFGQGTKLEIK
notes: IgG; also called Datopotamab WT; Datopotamab
As to B2, the IC50 in assay [2] was found to be 0.51 nM; in assay [3] it was 0.48 nM; in assay [5] it was 0.54 nM. Moreover, the affinity in assay [4], expressed as Kd, was 1.25 nM. Also, the “Octet response at 33.33 nM (Y-Axis) nm” value in assay [4] worked out at 0.13 nm.

B3: MYT12403 (antibody, V domains shown)
VH: QVQLVQSGAEVKKPGASVKVSCKASGYTFTTAGMQWVRQAPGQGLEWMGWINTHSGVPKYAEDFKGRVTISADTSTSTAYLQLSSLKSEDTAVYYCARSGFGSSYWYFDVWGQGTLVTVSS
VL: DIQMTQSPSSLSASVGDRVTITCKASQHVSTAVAWYQQKPGKAPKLLIYSASYRYTGVPSRFSGSGSGTDFTLTISSLQPEDFAVYYCHQHHITPLTFGQGTKLEIK
notes: datopotamab VL 28, 89, 92 substituted
With B3, the binding result in assay [1] is on record as “no binding (tested: 50 nM)”.

B4: MYT11699 (antibody, V domains shown)
VH: QVQLVQSGAEVKKPGASVKVSCKASGYTFTTAGMQWVRQAPGQGLEWMGWINTHSGVPKYAEDFKGRVTISADTSTSTAYLQLSSLKSEDTAVYYCARSGFGSSYWYFDVWGQGTLVTVSS
VL: DIQMTQSPSSLSASVGDRVTITCKASQDVSTAVAWYQQKPGKAPKLLIYSASYRYTGVPSRFSGSGSGTDFTLTISSLQPEDFAVYYCQQHYHTPLTFGQGTKLEIK
notes: IgG; also called Datopotamab LC variant
As for B4, the IC50 in assay [2] came to 0.73 nM; in assay [3], 4.58 nM; in assay [5] it was 1.16 nM. In addition, the Kd in assay [4] stood at 3.52 nM. The “Octet response at 33.33 nM (Y-Axis) nm” value in assay [4] was determined as 0.0968 nm.

B5: MYT12394 (antibody, V domains shown)
VH: QVQLVQSGAEVKKPGASVKVSCKASGYTFTTAGMQWVRQAPGQGLEWMGWINTHSGVPKYAEDFKGRVTISADTSTSTAYLQLSSLKSEDTAVYYCARSGFGSSYWYFDVWGQGTLVTVSS
VL: DIQMTQSPSSLSASVGDRVTITCKASQDVSTAVAWYQQKPGKAPKLLIYSHSYRYTGVPSRFSGSGSGTDFTLTISSLQPEDFAVYYCQQHHITPLTFGQGTKLEIK
notes: datopotamab VL 51, 92 substituted
Take B5: the binding result in assay [1] is “no binding (tested: 50 nM)”.

B6: MYT12397 (antibody, V domains shown)
VH: QVQLVQSGAEVKKPGASVKVSCKASGYTFTTAGMQWVRQAPGQGLEWMGWINTHSGVPKYAEDFKGRVTISADTSTSTAYLQLSSLKSEDTAVYYCARSGFGSSYWYFDVWGQGTLVTVSS
VL: DIQMTQSPSSLSASVGDRVTITCKASQDVSTAVAWYQQKPGKAPKLLIYSASYRYTGVPSRFSGSGSGTDFTLTISSLQPEDFAVYYCHQHHITPLTFGQGTKLEIK
notes: datopotamab VL 89, 92 substituted
As to B6, in assay [1], the binding result is “no binding (tested: 50 nM)”.

B7: MYT11670 (antibody, human IgG1, V domains shown)
VH: QVQLVQSGAEVKKPGASVKVSCKASGYTFTTAGMQWVRQAPGQGLEWMGWINTHSGVPKYAEDFKGRVTISADTSTSTAYLQLSSLKSEDTAVYYCARSGFGSHYWYFDVWGQGTLVTVSS
VL: DIQMTQSPSSLSASVGDRVTITCKASQDVSTAVAWYQQKPGKAPKLLIYSASYRYTGVPSRFSGSGSGTDFTLTISSLQPEDFAVYYCQQHYITPLTFGQGTKLEIK
notes: IgG
B7: the IC50 in assay [2] worked out at 1.61 nM; in assay [3], 1.83 nM; in assay [5], 1.42 nM. The dissociation constant Kd in assay [4] came out at 10.9 nM. Moreover, the “Octet response at 33.33 nM (Y-Axis) nm” value in assay [4] turned out to be 0.0891 nm.

B8: MYT12402 (antibody, V domains shown)
VH: QVQLVQSGAEVKKPGASVKVSCKASGYTFTTAGMQWVRQAPGQGLEWMGWINTHSGVPKYAEDFKGRVTISADTSTSTAYLQLSSLKSEDTAVYYCARSGFGSSYWYFDVWGQGTLVTVSS
VL: DIQMTQSPSSLSASVGDRVTITCKASQHVSTAVAWYQQKPGKAPKLLIYSAHYRYTGVPSRFSGSGSGTDFTLTISSLQPEDFAVYYCQQHHITPLTFGQGTKLEIK
notes: datopotamab VL 28, 52, 92 substituted
On to B8, for which the binding result in assay [1] is “no binding (tested: 50 nM)”.

B9: MYT12396 (antibody, V domains shown)
VH: QVQLVQSGAEVKKPGASVKVSCKASGYTFTTAGMQWVRQAPGQGLEWMGWINTHSGVPKYAEDFKGRVTISADTSTSTAYLQLSSLKSEDTAVYYCARSGFGSSYWYFDVWGQGTLVTVSS
VL: DIQMTQSPSSLSASVGDRVTITCKASQDVSTAVAWYQQKPGKAPKLLIYSAHYRYTGVPSRFSGSGSGTDFTLTISSLQPEDFAVYYCQQHHITPLTFGQGTKLEIK
notes: datopotamab VL 52, 92 substituted
As for B9, the binding result in assay [1] is on record as “no binding (tested: 50 nM)”.

B10: MYT12401 (antibody, V domains shown)
VH: QVQLVQSGAEVKKPGASVKVSCKASGYTFTTAGMQWVRQAPGQGLEWMGWINTHSGVPKYAEDFKGRVTISADTSTSTAYLQLSSLKSEDTAVYYCARSGFGSSYWYFDVWGQGTLVTVSS
VL: DIQMTQSPSSLSASVGDRVTITCKASQHVSTAVAWYQQKPGKAPKLLIYSAHYRYTGVPSRFSGSGSGTDFTLTISSLQPEDFAVYYCHQHYITPLTFGQGTKLEIK
notes: datopotamab VL 28, 52, 89 substituted
As to B10, the binding result in assay [1] is listed as “no binding (tested: 50 nM)”.

B11: MYT12400 (antibody, V domains shown)
VH: QVQLVQSGAEVKKPGASVKVSCKASGYTFTTAGMQWVRQAPGQGLEWMGWINTHSGVPKYAEDFKGRVTISADTSTSTAYLQLSSLKSEDTAVYYCARSGFGSSYWYFDVWGQGTLVTVSS
VL: DIQMTQSPSSLSASVGDRVTITCKASQHVSTAVAWYQQKPGKAPKLLIYSHSYRYTGVPSRFSGSGSGTDFTLTISSLQPEDFAVYYCQQHHITPLTFGQGTKLEIK
notes: datopotamab VL 28, 51, 92 substituted
For B11, the binding result in assay [1] is on record as “no binding (tested: 50 nM)”.

B12: MYT12391 (antibody, V domains shown)
VH: QVQLVQSGAEVKKPGASVKVSCKASGYTFTTAGMQWVRQAPGQGLEWMGWINTHSGVPKYAEDFKGRVTISADTSTSTAYLQLSSLKSEDTAVYYCARSGFGSSYWYFDVWGQGTLVTVSS
VL: DIQMTQSPSSLSASVGDRVTITCKASQHVSTAVAWYQQKPGKAPKLLIYSASYRYTGVPSRFSGSGSGTDFTLTISSLQPEDFAVYYCQQHHITPLTFGQGTKLEIK
notes: datopotamab VL 28, 92 substituted
For B12, the binding result in assay [1] is reported as “no binding (tested: 50 nM)”.

B13: MYT13436 (antibody, V domains shown)
VH: QVQLQQSGSELKKPGASVKVSCKASGYTFTNYGMNWVKQAPGQGLKWMGWINTYTGEPTYTDDFHGRFAFSLDTSVSTAYLQISSLKADDTAVYFCARGGFGSSYWYFDVWGQGSLVTVSS
VL: DIQLTQSPSSLSASVGDRVSITCKASQDVSIAVAWYQQKPGKAPKLLIYSHSHRYTGVPDRFSGSGSGTDFTLTISSLQPEDFAVYYCQQHYHTPLTFGAGTKVEIK
notes: Sacituzumab HC-LC pairing variant
For B13, in assay [6], the binding result was “binds”.
